Test results as given in IntAct's records for PubMed 15205472.

B1: Prospero homeobox protein 1 (Homo sapiens), Q92786 (parent)
chain: MPDHDSTALLSRQTKRRRVDIGVKRTVGTASAFFAKARATFFSAMNPQGSEQDVEYSVVQHADGEKSNVLRKLLKRANSYEDAMMPFPGATIISQLLKNNMNKNGGTEPSFQASGLSSTGSEVHQEDICSNSSRDSPPECLSPFGRPTMSQFDMDRLCDEHLRAKRARVENIIRGMSHSPSVALRGNENEREMAPQSVSPRESYRENKRKQKLPQQQQQSFQQLVSARKEQKREERRQLKQQLEDMQKQLRQLQEKFYQIYDSTDSENDEDGNLSEDSMRSEILDARAQDSVGRSDNEMCELDPGQFIDRARALIREQEMAENKPKREGNNKERDHGPNSLQPEGKHLAETLKQELNTAMSQVVDTVVKVFSAKPSRQVPQVFPPLQIPQARFAVNGENHNFHTANQRLQCFGDVIIPNPLDTFGNVQMASSTDQTEALPLVVRKNSSDQSASGPAAGGHHQPLHQSPLSATTGFTTSTFRHPFPLPLMAYPFQSPLGAPSGSFSGKDRASPESLDLTRDTTSLRTKMSSHHLSHHPCSPAHPPSTAEGLSLSLIKSECGDLQDMSEISPYSGSAMQEGLSPNHLKKAKLMFFYTRYPSSNMLKTYFSDVKFNRCITSQLIKWFSNFREFYYIQMEKYARQAINDGVTSTEELSITRDCELYRALNMHYNKANDFEVPERFLEVAQITLREFFNAIIAGKDVDPSWKKAIYKVICKLDSEVPEIFKSPNCLQELLHE
B2: Nuclear receptor subfamily 5 group A member 2 (Homo sapiens), O00482-2 (parent)
chain: MSSNSDTGDLQESLKHGLTPIVSQFKMVNYSYDEDLEELCPVCGDKVSGYHYGLLTCESCKGFFKRTVQNNKRYTCIENQNCQIDKTQRKRCPYCRFQKCLSVGMKLEAVRADRMRGGRNKFGPMYKRDRALKQQKKALIRANGLKLEAMSQVIQAMPSDLTISSAIQNIHSASKGLPLNHAALPPTDYDRSPFVTSPISMTMPPHGSLQGYQTYGHFPSRAIKSEYPDPYTSSPESIMGYSYMDSYQTSSPASIPHLILELLKCEPDEPQVQAKIMAYLQQEQANRSKHEKLSTFGLMCKMADQTLFSIVEWARSSIFFRELKVDDQMKLLQNCWSELLILDHIYRQVVHGKEGSIFLVTGQQVDYSIIASQAGATLNNLMSHAQELVAKLRSLQFDQREFVCLKFLVLFSLDVKNLENFQLVEGVQEQVNAALLDYTMCNYPQQTEKFGQLLLRLPEIRAISMQAEEYLYYKHLNGDVPYNNLLIEMLHAKRA

Variants of: B1
Settings: with NR5A2, O00482-2

effect of a mutation on the interaction	Variant
disrupting interaction	L70A;L73A

Variants of: B2
Settings: with prox1_human PROX1, Q92786

effect of a mutation on the interaction	Variant
disrupting interaction	L453A;L454A
decreasing interaction	D326A;D327A;M329A
decreasing interaction	K301A;Q305A;F308A
disrupting interaction	Q273A;Q281A;Q282A
